{"source": "patent US20050255113A1", "about": "“Methods and compositions for inhibiting polypeptide accumulation associated with neurological disorders” (New York State Department of Health and Abgenix, Inc., priority 1999, published 2005)", "molecules": {"B1": {"name": "C4 sFv: human single-chain Fv intrabody from phage display, specific for the 17 N-terminal residues of huntingtin; SEQ ID NO: 6 (protein)", "scFv": "QVQLQESGGGLVQPGGSLRLSCAASGFTFSSYSMSWVRQAPGKGLEWVAVISYDGSNKYYADSVKGRFTISRDNSKNTLYLQMNSLRAEDTAVYYCARDRYFDLWGRGTLVTVSSGGGGSGGGGSGGGGSQSALTQPASVSGSPGQSITISCTGTSSDIGAYNYVSWYQQYPGKAPKLLIYDVSNRPSGISNRFSGSKSGDTASLTISGLQAEDEADYYCSSFANSGPLFGGGTKVTVL"}}, "key": {"[1]": {"test_system": "HD-72Q-GFP protein expression", "assay": "Immunoblot of HD-72Q-GFP protein expression in co-transfections", "assay_type": "cell-based", "details": "5:1 co-transfections, 24 hours, different transfection paradigms", "experimental": "(§1) Some aggregates are found in 104Q co-transfections (never in 25Q), often in cells not expressing C4 (arrowheads), but in some dually-transfected cells as well (arrow). […] Cell lysates were collected from 5:1 co-transfections (sFv:HD-72Q-GFP) in duplicate at 24 hours (prior to prominent aggregate formation and loss of HD-72Q-GFP to the insoluble compartment) and subjected to SDS-PAGE. The membrane was probed with 1:1000 […] primary antibody (Quantum), stripped and reprobed with 1:500 anti-actin antibody (Sigma). HD-72Q-GFP bands were of similar intensity after detection by HRP-conjugated secondary antibody and chemiluminescence.\n(§2) The typical intrabody constructs were fused to a C-terminal hemagglutinin (HA) peptide tag to facilitate immunodetection of the protein, while keeping the protein localized to the cytosol. […] The diffuse labeling was also characteristic of the normal length (25Q) construct, with or without intrabody co-transfection (FIG. 15)."}, "[2]": {"test_system": "HD-polyQ72-GFP or HD-Q104-GFP in BHK cells", "assay": "Double label immunofluorescence of BHK cells co-transfected with C4 sFv and HD-polyQ-GFP", "assay_type": "cell-based", "details": "5:1 C4:HD-polyQ-GFP", "experimental": "as §1, §2"}}}
{"molecule": "B1", "values": [{"measurement": "HD protein expression level", "setting": "[1]", "result": "indistinguishable levels of products"}, {"measurement": "GFP label and aggregates in dual transfectants", "setting": "[2]", "result": "substantial diffuse GFP label, but with only an occasional fluorescent aggregate"}]}
